In the supplement of paper PMC10126150:
± gives the standard deviation of the averaged measurements.

Tested on: ATP
Assay: switch fluorescence ratio, 500 uM ATP over buffer (Cy3 cluster intensity, sum of 5 cycles each) (fold (ratio)); higher = stronger signal-on switching upon ATP binding; sequences stand for … in TCGTCGGCAGCGTCAGATGTGTATAAGAGACAGTTTTTTTTTTTTTTTTTTTTTTTTT…TC
Details: aptamer strand: ATP DNA aptamer (quencher-CACCTGGGGGAGTATTGCGGAGGAAGG + anchor), 100 nM annealed; ATP concentration: 500 uM
Method in brief: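 For every switch-domain sequence, the fluorescence ratio is the mean of per-cluster values, each being summed target-cycle Cy3 intensity over summed buffer-cycle Cy3 intensity. Clusters outside 100-1000 RFU were excluded. On a modified Illumina MiSeq flow-cell, the Cy3-labelled switching-strand clusters were annealed to 100 nM quencher-labelled ATP aptamer, imaged in selection buffer and then after 15 min with 500 uM ATP at 22 °C. Five such cycles were run, with NaOH stripping and re-annealing between them.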
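Note: ATP exposure 15 min at 22 °C before imaging.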

GCTGACTTGT and GCTGATTGTG are within error of each other in switch fluorescence ratio: 0.977 ± 0.016 for the first, 1 ± 0.023 for the second.

GCTGATTTCG and GCTGCCGGGG are within error of each other in switch fluorescence ratio: 1 ± 0.029 for the first, 0.971 ± 0.046 for the second.

Compared with GCTGCTTAGG, GCTGGAACCG is higher in switch fluorescence ratio: 0.974 ± 0.018 for the first, 1.08 ± 0.022 for the second.

GCTGGAGGTG and GCTGGCGGAT are within error of each other in switch fluorescence ratio: 1.03 ± 0.039 for the first, 1.01 ± 0.041 for the second.

GCTGGCTCTT and GCTGGGACAG are within error of each other in switch fluorescence ratio: 1.01 ± 0.014 for the first, 0.999 ± 0.032 for the second.

GCTGGGAGAG and GCTGGGATTA are within error of each other in switch fluorescence ratio: 0.989 ± 0.042 for the first, 0.984 ± 0.012 for the second.

GCTGGGCACA and GCTGGGGACG are within error of each other in switch fluorescence ratio: 0.967 ± 0.03 for the first, 0.938 ± 0.084 for the second.

GCTGGGGGGC and GCTGGGGTAA are within error of each other in switch fluorescence ratio: 0.988 ± 0.033 for the first, 1.02 ± 0.021 for the second.

GCTGGGGTGC and GCTGGGTAAT are within error of each other in switch fluorescence ratio: 1 ± 0.09 for the first, 1.02 ± 0.044 for the second.

GCTGGGTCGA and GCTGGGTGAT are within error of each other in switch fluorescence ratio: 1.03 ± 0.01 for the first, 1.018 ± 0.0069 for the second.

GCTGGTAAAG and GCTGGTAAGC are within error of each other in switch fluorescence ratio: 0.972 ± 0.017 for the first, 0.9696 ± 0.0029 for the second.

GCTGGTTAGT and GCTGTAGGAG are within error of each other in switch fluorescence ratio: 1 ± 0.014 for the first, 0.9843 ± 0.0072 for the second.

GCTGTAGGCG and GCTGTATGCA are within error of each other in switch fluorescence ratio: 0.988 ± 0.015 for the first, 0.976 ± 0.012 for the second.

First: GCTGTGAGGT
Second: GCTGTGCGCA
The switch fluorescence ratio of the first is lower: 0.979 ± 0.0018 for the first, 1.02 ± 0.019 for the second.

First: GCTGTGTAGA
Second: GCTGTGTTGG
The switch fluorescence ratio of the first is higher: 1.073 ± 0.0021 for the first, 1.02 ± 0.013 for the second.

GCTGTTCACG and GCTGTTGGCA are the same in switch fluorescence ratio: 1.01 ± 0.014 for the first, 1.01 ± 0.025 for the second.

GCTGTTTCAG and GCTGTTTGGG are within error of each other in switch fluorescence ratio: 0.986 ± 0.016 for the first, 0.997 ± 0.014 for the second.

GCTGTTTTCA and GCTTAACGCT are within error of each other in switch fluorescence ratio: 0.984 ± 0.048 for the first, 0.999 ± 0.019 for the second.

GCTTAACGTA and GCTTAACTTC are within error of each other in switch fluorescence ratio: 1.05 ± 0.044 for the first, 0.982 ± 0.039 for the second.

First: GCTTAAGGGG
Second: GCTTACCCCC
The switch fluorescence ratio of the first is lower: 0.989 ± 0.029 for the first, 2.09 ± 0.13 for the second.

First: GCTTACTGTA
Second: GCTTAGGTCA
The switch fluorescence ratio of the first is higher: 1.15 ± 0.024 for the first, 0.982 ± 0.034 for the second.

GCTTAGTATA and GCTTAGTGGT are within error of each other in switch fluorescence ratio: 1.01 ± 0.019 for the first, 0.981 ± 0.025 for the second.

Going from GCTTATGTTC to GCTTATTCGG, the switch fluorescence ratio falls from 1.015 ± 0.0097 to 0.959 ± 0.03.

GCTTCAGCAA and GCTTCAGTGA are within error of each other in switch fluorescence ratio: 1.03 ± 0.055 for the first, 1.02 ± 0.019 for the second.

Going from GCTTCCAGTT to GCTTCCGAGA, the switch fluorescence ratio rises from 0.995 ± 0.035 to 1.87 ± 0.05.

GCTTCGAAGG and GCTTCGGGTT are within error of each other in switch fluorescence ratio: 0.993 ± 0.031 for the first, 0.976 ± 0.028 for the second.

GCTTCTACTG and GCTTCTAGGT are within error of each other in switch fluorescence ratio: 0.988 ± 0.034 for the first, 0.9976 ± 0.0043 for the second.

GCTTGAGGAG and GCTTGAGTTC are within error of each other in switch fluorescence ratio: 1 ± 0.009 for the first, 1.03 ± 0.025 for the second.

Going from GCTTGAGTTG to GCTTGATGTG, the switch fluorescence ratio falls from 1.0068 ± 0.0004 to 0.986 ± 0.015.

GCTTGCTATG and GCTTGGGAAC are within error of each other in switch fluorescence ratio: 0.976 ± 0.014 for the first, 0.993 ± 0.028 for the second.

GCTTGGGGGG and GCTTGGGGTG are the same in switch fluorescence ratio: 1.02 ± 0.029 for the first, 1.02 ± 0.024 for the second.

GCTTGGGTAT and GCTTGGTTTT are within error of each other in switch fluorescence ratio: 1.02 ± 0.062 for the first, 1.01 ± 0.013 for the second.

GCTTGTCGGT and GCTTGTCTTC are within error of each other in switch fluorescence ratio: 1.022 ± 0.0096 for the first, 1.005 ± 0.0014 for the second.

GCTTGTGGAG and GCTTGTTCGG are within error of each other in switch fluorescence ratio: 1.02 ± 0.013 for the first, 1.04 ± 0.011 for the second.

GCTTTAGTAT and GCTTTATGGG are within error of each other in switch fluorescence ratio: 0.9963 ± 0.0058 for the first, 0.98 ± 0.027 for the second.

Compared with GCTTTCATAT, GCTTTCGATC is higher in switch fluorescence ratio: 0.9996 ± 0.0099 for the first, 1.05 ± 0.033 for the second.

GCTTTGATGT and GCTTTGGATG are within error of each other in switch fluorescence ratio: 0.9839 ± 0.0032 for the first, 0.968 ± 0.05 for the second.

GCTTTGGGGC and GCTTTGTATA are within error of each other in switch fluorescence ratio: 1.01 ± 0.02 for the first, 1 ± 0.021 for the second.

GCTTTGTGAT and GCTTTTAGCG are within error of each other in switch fluorescence ratio: 1.01 ± 0.066 for the first, 0.989 ± 0.055 for the second.

Compared with GCTTTTGAAG, GCTTTTGGCA is higher in switch fluorescence ratio: 0.993 ± 0.019 for the first, 1.019 ± 0.0057 for the second.

GCTTTTGTAT and GGAAAAATTG are within error of each other in switch fluorescence ratio: 0.991 ± 0.025 for the first, 1.02 ± 0.021 for the second.

GGAAAAGGGT and GGAAAATACA are within error of each other in switch fluorescence ratio: 0.998 ± 0.04 for the first, 0.985 ± 0.025 for the second.

GGAAACAGTT and GGAAACTTAG are within error of each other in switch fluorescence ratio: 1 ± 0.032 for the first, 1.019 ± 0.0089 for the second.

GGAAAGGGAG and GGAAAGGGGC are within error of each other in switch fluorescence ratio: 0.97 ± 0.02 for the first, 0.95 ± 0.053 for the second.

Compared with GGAAAGTCGT, GGAAATATTT is lower in switch fluorescence ratio: 1.03 ± 0.018 for the first, 0.98 ± 0.016 for the second.

GGAAATGGGC and GGAAATGTTT are within error of each other in switch fluorescence ratio: 0.97 ± 0.042 for the first, 1.01 ± 0.026 for the second.

GGAAATTGTG and GGAACAGCGG are within error of each other in switch fluorescence ratio: 1.04 ± 0.052 for the first, 1.001 ± 0.0016 for the second.

GGAACGAAGA and GGAACGAGAG are within error of each other in switch fluorescence ratio: 0.98 ± 0.028 for the first, 0.989 ± 0.03 for the second.

GGAACGGGGC and GGAACGGGTG are within error of each other in switch fluorescence ratio: 0.961 ± 0.06 for the first, 1.09 ± 0.17 for the second.

GGAACGTGTT and GGAACTCATG are within error of each other in switch fluorescence ratio: 1.004 ± 0.0097 for the first, 0.959 ± 0.046 for the second.
